Tests used:
papain = papain (UniProt P00784)
[1] = target: human cathepsin L (human) (UniProt P07711); test: enzyme inhibition kinetics (Dixon plot); cathepsin L 0.4 nM; Cystatin-Hv 8, 16 and 24 nM; Z-FR-AMC substrate at 1 Km and 2 Km; 50 mM sodium phosphate, 200 mM NaCl, 5 mM EDTA, pH 5.5, 6 mM DTT preactivation; 37 °C; fluorescence read each minute for 15 min

UniProt P00784, sequence (P00784 134-345): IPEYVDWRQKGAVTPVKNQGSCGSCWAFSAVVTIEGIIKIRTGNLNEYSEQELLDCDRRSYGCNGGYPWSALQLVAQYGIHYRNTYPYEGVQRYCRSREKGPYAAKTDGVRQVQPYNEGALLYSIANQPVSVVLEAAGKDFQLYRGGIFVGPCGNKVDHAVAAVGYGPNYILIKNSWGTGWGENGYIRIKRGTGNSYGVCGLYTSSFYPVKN

## Cystatin-Hv (recombinant cystatin of the leech Haementeria vizottoi) (natural protein)
papain
  IC50 of inhibition of papain activity (papain 21.4 nmol/L or 50 ng, 5 µM Z-FR-MCA substrate; 1, 5, 10 and 15 µg of pool 2 from ion-exchange chromatography): 0.12 µM
[1]
  Ki: 0.0079 µM

From paper PMC8705320
